Test results from patent publication US20130157935A1 (ZEALAND PHARMA A S, published 2013).
Starred links: 1 amine or outer side, 2 acyl side, 3 side chain; linkers in the order of their positions; H or OH if unused. Groups on a side chain read outwards from the residue. *: point of attachment. γGlu = O=C(O)[C@H](CCC(=O)[*:2])N[*:1]; Palmitoyl = CCCCCCCCCCCCCCCC(=O)*

B1: Compound 5: H-HSQGTFTSDYSKYLD-K(Hexadecanoyl-isoGlu)-RRAKDFIEWLLSA-NH2 (peptide)
peptide: HSQGTFTSDYSKYLDXRRAKDFIEWLLSA
HELM: PEPTIDE1{H.S.Q.G.T.F.T.S.D.Y.S.K.Y.L.D.K.R.R.A.K.D.F.I.E.W.L.L.S.A.[am]}|PEPTIDE2{[CCCCCCCCCCCCCCCC(=O)[*:2]].[gGlu]}$PEPTIDE1,PEPTIDE2,16:R3-2:R2$$$V2.0
SMILES: CCCCCCCCCCCCCCCC(=O)N[C@@H](CCC(=O)NCCCC[C@H](NC(=O)[C@H](CC(=O)O)NC(=O)[C@H](CC(C)C)NC(=O)[C@H](Cc1ccc(O)cc1)NC(=O)[C@H](CCCCN)NC(=O)[C@H](CO)NC(=O)[C@H](Cc1ccc(O)cc1)NC(=O)[C@H](CC(=O)O)NC(=O)[C@H](CO)NC(=O)[C@@H](NC(=O)[C@H](Cc1ccccc1)NC(=O)[C@@H](NC(=O)CNC(=O)[C@H](CCC(N)=O)NC(=O)[C@H](CO)NC(=O)[C@@H](N)Cc1c[nH]cn1)[C@@H](C)O)[C@@H](C)O)C(=O)N[C@@H](CCCNC(=N)N)C(=O)N[C@@H](CCCNC(=N)N)C(=O)N[C@@H](C)C(=O)N[C@@H](CCCCN)C(=O)N[C@@H](CC(=O)O)C(=O)N[C@@H](Cc1ccccc1)C(=O)N[C@H](C(=O)N[C@@H](CCC(=O)O)C(=O)N[C@@H](Cc1c[nH]c2ccccc12)C(=O)N[C@@H](CC(C)C)C(=O)N[C@@H](CC(C)C)C(=O)N[C@@H](CO)C(=O)N[C@@H](C)C(N)=O)[C@@H](C)CC)C(=O)O
B2: Compound 4: H-HSQGTFTSDYSKYLDERRAKDFIEWLL-K(Hexadecanoyl-isoGlu)-A-NH2 (peptide)
peptide: HSQGTFTSDYSKYLDERRAKDFIEWLLXA
HELM: PEPTIDE1{H.S.Q.G.T.F.T.S.D.Y.S.K.Y.L.D.E.R.R.A.K.D.F.I.E.W.L.L.K.A.[am]}|PEPTIDE2{[CCCCCCCCCCCCCCCC(=O)[*:2]].[gGlu]}$PEPTIDE1,PEPTIDE2,28:R3-2:R2$$$V2.0
SMILES: CCCCCCCCCCCCCCCC(=O)N[C@@H](CCC(=O)NCCCC[C@H](NC(=O)[C@H](CC(C)C)NC(=O)[C@H](CC(C)C)NC(=O)[C@H](Cc1c[nH]c2ccccc12)NC(=O)[C@H](CCC(=O)O)NC(=O)[C@@H](NC(=O)[C@H](Cc1ccccc1)NC(=O)[C@H](CC(=O)O)NC(=O)[C@H](CCCCN)NC(=O)[C@H](C)NC(=O)[C@H](CCCNC(=N)N)NC(=O)[C@H](CCCNC(=N)N)NC(=O)[C@H](CCC(=O)O)NC(=O)[C@H](CC(=O)O)NC(=O)[C@H](CC(C)C)NC(=O)[C@H](Cc1ccc(O)cc1)NC(=O)[C@H](CCCCN)NC(=O)[C@H](CO)NC(=O)[C@H](Cc1ccc(O)cc1)NC(=O)[C@H](CC(=O)O)NC(=O)[C@H](CO)NC(=O)[C@@H](NC(=O)[C@H](Cc1ccccc1)NC(=O)[C@@H](NC(=O)CNC(=O)[C@H](CCC(N)=O)NC(=O)[C@H](CO)NC(=O)[C@@H](N)Cc1c[nH]cn1)[C@@H](C)O)[C@@H](C)O)[C@@H](C)CC)C(=O)N[C@@H](C)C(N)=O)C(=O)O
B3: Compound 7: H-H-Aib-QGTFTSDYSKYLDE-K(Hexadecanoyl-isoGlu)-RAKDFIEWLLSA-NH2 (peptide)
peptide: HXQGTFTSDYSKYLDEXRAKDFIEWLLSA
HELM: PEPTIDE1{H.[Aib].Q.G.T.F.T.S.D.Y.S.K.Y.L.D.E.K.R.A.K.D.F.I.E.W.L.L.S.A.[am]}|PEPTIDE2{[CCCCCCCCCCCCCCCC(=O)[*:2]].[gGlu]}$PEPTIDE1,PEPTIDE2,17:R3-2:R2$$$V2.0
SMILES: CCCCCCCCCCCCCCCC(=O)N[C@@H](CCC(=O)NCCCC[C@H](NC(=O)[C@H](CCC(=O)O)NC(=O)[C@H](CC(=O)O)NC(=O)[C@H](CC(C)C)NC(=O)[C@H](Cc1ccc(O)cc1)NC(=O)[C@H](CCCCN)NC(=O)[C@H](CO)NC(=O)[C@H](Cc1ccc(O)cc1)NC(=O)[C@H](CC(=O)O)NC(=O)[C@H](CO)NC(=O)[C@@H](NC(=O)[C@H](Cc1ccccc1)NC(=O)[C@@H](NC(=O)CNC(=O)[C@H](CCC(N)=O)NC(=O)C(C)(C)NC(=O)[C@@H](N)Cc1c[nH]cn1)[C@@H](C)O)[C@@H](C)O)C(=O)N[C@@H](CCCNC(=N)N)C(=O)N[C@@H](C)C(=O)N[C@@H](CCCCN)C(=O)N[C@@H](CC(=O)O)C(=O)N[C@@H](Cc1ccccc1)C(=O)N[C@H](C(=O)N[C@@H](CCC(=O)O)C(=O)N[C@@H](Cc1c[nH]c2ccccc12)C(=O)N[C@@H](CC(C)C)C(=O)N[C@@H](CC(C)C)C(=O)N[C@@H](CO)C(=O)N[C@@H](C)C(N)=O)[C@@H](C)CC)C(=O)O
B4: Compound 2: H-HSQGTFTSDYSKYLDERRAKDFIEWL-K(Hexadecanoyl-isoGlu)-SA-NH2 (peptide)
peptide: HSQGTFTSDYSKYLDERRAKDFIEWLXSA
HELM: PEPTIDE1{H.S.Q.G.T.F.T.S.D.Y.S.K.Y.L.D.E.R.R.A.K.D.F.I.E.W.L.K.S.A.[am]}|PEPTIDE2{[CCCCCCCCCCCCCCCC(=O)[*:2]].[gGlu]}$PEPTIDE1,PEPTIDE2,27:R3-2:R2$$$V2.0
SMILES: CCCCCCCCCCCCCCCC(=O)N[C@@H](CCC(=O)NCCCC[C@H](NC(=O)[C@H](CC(C)C)NC(=O)[C@H](Cc1c[nH]c2ccccc12)NC(=O)[C@H](CCC(=O)O)NC(=O)[C@@H](NC(=O)[C@H](Cc1ccccc1)NC(=O)[C@H](CC(=O)O)NC(=O)[C@H](CCCCN)NC(=O)[C@H](C)NC(=O)[C@H](CCCNC(=N)N)NC(=O)[C@H](CCCNC(=N)N)NC(=O)[C@H](CCC(=O)O)NC(=O)[C@H](CC(=O)O)NC(=O)[C@H](CC(C)C)NC(=O)[C@H](Cc1ccc(O)cc1)NC(=O)[C@H](CCCCN)NC(=O)[C@H](CO)NC(=O)[C@H](Cc1ccc(O)cc1)NC(=O)[C@H](CC(=O)O)NC(=O)[C@H](CO)NC(=O)[C@@H](NC(=O)[C@H](Cc1ccccc1)NC(=O)[C@@H](NC(=O)CNC(=O)[C@H](CCC(N)=O)NC(=O)[C@H](CO)NC(=O)[C@@H](N)Cc1c[nH]cn1)[C@@H](C)O)[C@@H](C)O)[C@@H](C)CC)C(=O)N[C@@H](CO)C(=O)N[C@@H](C)C(N)=O)C(=O)O
B5: Compound 3: H-HSQGTFTSDYSKYLDERRA-K(Hexadecanoyl-isoGlu)-DFIEWLLSA-NH2 (peptide)
peptide: HSQGTFTSDYSKYLDERRAXDFIEWLLSA
modifications: K(Hexadecanoyl-isoGlu) at position 20; C-terminal amide (NH2)
B6: Compound 6: H-HSQGTFTSDYSKYLDE-K(Hexadecanoyl-isoGlu)-RAKDFIEWLLSA-NH2 (peptide)
peptide: H-HSQGTFTSDYSKYLDEK([γGlu-Palmitoyl])RAKDFIEWLLSA-NH2

Each binder was assayed against human glucagon receptor (Glucagon-R) (human, UniProt P47871 26-477) (assay: cell-based or functional assay).
Chain of human glucagon receptor (Glucagon-R) (P47871 26-477): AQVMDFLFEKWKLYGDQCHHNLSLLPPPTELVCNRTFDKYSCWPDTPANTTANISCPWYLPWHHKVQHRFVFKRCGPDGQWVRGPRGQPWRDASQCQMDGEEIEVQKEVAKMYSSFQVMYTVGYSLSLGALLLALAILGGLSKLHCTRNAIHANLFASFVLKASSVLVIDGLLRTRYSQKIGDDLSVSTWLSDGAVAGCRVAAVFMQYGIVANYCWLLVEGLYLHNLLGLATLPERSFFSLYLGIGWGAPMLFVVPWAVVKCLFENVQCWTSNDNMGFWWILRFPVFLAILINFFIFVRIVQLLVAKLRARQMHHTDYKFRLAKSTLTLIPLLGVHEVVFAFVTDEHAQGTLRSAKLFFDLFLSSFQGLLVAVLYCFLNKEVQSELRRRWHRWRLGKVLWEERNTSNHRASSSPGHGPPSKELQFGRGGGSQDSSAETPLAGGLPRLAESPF

GluR EC50 (nM), cAMP formation in HEK293 cells expressing human Glucagon-R [nM]	Binder
0.19	B1
0.25	B2
0.16	B3
0.81	B4
0.6	B5

Each binder was assayed against human glucagon-like peptide 1 receptor (GLP-1 R) (human, UniProt P43220 24-463) (assay: cell-based or functional assay).

GLP-1R EC50 (nM), cAMP formation in HEK293 cells expressing human GLP-1-R [nM]	Binder
0.35	B1
0.31	B2
0.1	B3
0.13	B6
3.09	B4
0.64	B5
